Data reported in PMC7353425.

Target: 3 × LPG (truncated derivative of linker-protein G with three linker sequence repeats) (Streptococcus strain G148)
Experiment: QCM-D; 3 × LPG (3.27–654 nM) adsorbed on SiO2-coated sensor, free sites blocked with 1 mg/mL BSA, trastuzumab injected at 1 µg/mL; 1 × PBS pH 7.4, 22 °C, flow 150 µL/min; mass from the Voigt viscoelastic model

Substance: trastuzumab (humanized anti-HER2 monoclonal antibody)
- mass deposited for bound trastuzumab: 1020 ng/cm^2
